This note sets out measurements from patent CN112409487A (NINGBO SAIPO BIOTECHNOLOGY CO LTD, dated 2021).

For this assay, the target named is T1, 人可溶性转铁蛋白受体校准品 (human, UniProt P02786 101-760, limits assumed).
T1 construct: also called sTfR校准品
The experiment in a line: double-antibody sandwich latex immunoturbidimetry on the calibrator, OD570nm.

T1 sequence (P02786 101-760 limits assumed): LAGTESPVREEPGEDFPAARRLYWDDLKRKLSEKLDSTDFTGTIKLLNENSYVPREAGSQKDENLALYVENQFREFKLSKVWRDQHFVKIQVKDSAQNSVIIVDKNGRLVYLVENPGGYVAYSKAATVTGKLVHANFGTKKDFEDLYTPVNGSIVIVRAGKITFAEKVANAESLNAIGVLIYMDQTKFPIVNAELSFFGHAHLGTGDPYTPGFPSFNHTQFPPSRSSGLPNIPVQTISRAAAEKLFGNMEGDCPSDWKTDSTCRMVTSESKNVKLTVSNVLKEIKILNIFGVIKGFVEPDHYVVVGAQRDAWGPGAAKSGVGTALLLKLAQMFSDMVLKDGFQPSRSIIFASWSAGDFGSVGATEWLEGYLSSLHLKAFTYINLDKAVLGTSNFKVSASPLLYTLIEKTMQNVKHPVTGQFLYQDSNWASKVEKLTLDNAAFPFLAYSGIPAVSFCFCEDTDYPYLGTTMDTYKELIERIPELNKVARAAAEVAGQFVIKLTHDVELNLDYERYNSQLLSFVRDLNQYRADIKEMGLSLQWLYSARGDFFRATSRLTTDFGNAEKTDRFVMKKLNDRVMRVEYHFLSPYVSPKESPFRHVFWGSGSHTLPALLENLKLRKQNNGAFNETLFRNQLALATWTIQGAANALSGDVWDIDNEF

B1: 鼠单克隆抗体8E11 (antibody, V domains shown)
VH: QVQLQQSGAELVRPGTSVKISCKASGYAFTNYWLGWVKQRPGRGLEWIGDIFPGSSNTYYNEKFKGKASLTADKSSSTAYMHLSSLTSEDSAVYFCARVKDYYAMGYWGQGTSVTVSS
VL: ENVLTQSPAIMSASPGEKVTMTCSASSSVSYMNWYQQKSITSPKLWIYDTFKLASGVPGRFSGSGSGNSYSLTISSMEAEDVATYYCFQGSGYPYTFGGGTKLEIK
notes: Mouse hybridoma monoclonal antibody, purified from ascites on protein G and detected with goat anti-mouse IgG; It was coupled to latex particles in the turbidimetric assay; also called 第一单克隆抗体
In the case of B1, the binding result is “binds”.
